Test results reported in patent US20110008376A1.

Experiments:
[1] = molecular target: nOVA (untreated ovalbumin, 1 mg/ml in PBS) (chicken) (UniProt P01012); assay: ELISA, immobilized OVA form, normalized to nOVA
[2] = molecular target: cdH5-0 (dH5-0 supernatant after 10 min at 16,000-18,000*g) (influenza A virus H5N1 strain A/Vietnam/1203/04); assay: ELISA, immobilized H5 form, normalized to cdH5-0
[3] = molecular target: dH5-II (misfolded H5, heat cycling at pH 2) (influenza A virus H5N1 strain A/Vietnam/1203/04); assay: ELISA, immobilized H5 form, normalized to cdH5-0
[4] = molecular target: dH5-I (misfolded H5, heat cycling at pH 7) (influenza A virus H5N1 strain A/Vietnam/1203/04); assay: ELISA, immobilized H5 form, normalized to cdH5-0
[5] = molecular target: fdH5-0 (ultrafiltrated dH5-0, flow-through of a 1,000 kDa cut-off filter) (influenza A virus H5N1 strain A/Vietnam/1203/04); assay: ELISA, immobilized H5 form, normalized to cdH5-0
[6] = molecular target: dH5-III (misfolded H5, about 16 h at 47.5 C) (influenza A virus H5N1 strain A/Vietnam/1203/04); assay: ELISA, immobilized H5 form, normalized to cdH5-0
[7] = molecular target: dH5-0 (hemagglutinin 5 of H5N1 strain A/Vietnam/1203/04 as supplied by Protein Sciences) (influenza A virus H5N1 strain A/Vietnam/1203/04); assay: ELISA, immobilized H5 form, normalized to cdH5-0; average of two measurements
[8] = molecular target: cdH5-0 (dH5-0 supernatant after 10 min at 16,000-18,000*g) (influenza A virus H5N1 strain A/Vietnam/1203/04); assay: ELISA, immobilized H5 form, excess epsilon-amino caproic acid
[9] = molecular target: dH5-II (misfolded H5, heat cycling at pH 2) (influenza A virus H5N1 strain A/Vietnam/1203/04); assay: as above
[10] = molecular target: dH5-0 (hemagglutinin 5 of H5N1 strain A/Vietnam/1203/04 as supplied by Protein Sciences) (influenza A virus H5N1 strain A/Vietnam/1203/04); assay: as above
[11] = molecular target: fdH5-0 (ultrafiltrated dH5-0, flow-through of a 1,000 kDa cut-off filter) (influenza A virus H5N1 strain A/Vietnam/1203/04); assay: as above

Sequence of UniProt P01012 (P01012 2-386 limits assumed): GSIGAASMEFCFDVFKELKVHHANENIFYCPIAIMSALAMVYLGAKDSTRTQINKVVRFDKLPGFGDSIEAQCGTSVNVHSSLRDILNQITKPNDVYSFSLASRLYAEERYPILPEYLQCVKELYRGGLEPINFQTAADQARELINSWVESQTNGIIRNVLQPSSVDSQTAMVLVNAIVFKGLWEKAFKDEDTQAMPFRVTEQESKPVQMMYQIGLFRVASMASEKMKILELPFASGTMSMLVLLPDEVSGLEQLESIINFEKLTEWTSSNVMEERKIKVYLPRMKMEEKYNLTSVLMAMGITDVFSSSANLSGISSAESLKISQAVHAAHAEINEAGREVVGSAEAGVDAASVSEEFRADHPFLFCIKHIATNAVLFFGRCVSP

| Substance | Normalized affinity, kD (%) [1] [%] | Normalized affinity, kD (%) [2] [%] | Normalized affinity, kD (%) [3] [%] | Normalized affinity, kD (%) [4] [%] | Normalized affinity, kD (%) [5] [%] | Normalized affinity, kD (%) [6] [%] | Normalized affinity, kD (%) [7] [%] | Bmax [8] | Kd [8] [µM] | Bmax [9] | Kd [9] [µM] | Bmax [10] | Kd [10] [µM] | Bmax [11] | Kd [11] [µM] |
| --- | --- | --- | --- | --- | --- | --- | --- | --- | --- | --- | --- | --- | --- | --- | --- |
| fourth and fifth finger domain of fibronectin (Fn F4-5) (from UniProt P02751 183-274) | 100 | 100 | 88 | 0 | 69 | 6 | 103 |  |  |  |  |  |  |  |  |
| tissue type plasminogen activator (tPA) (from UniProt P00750 36-562) (enzyme) |  |  |  |  |  |  |  | 0.36 | 0.102 | 0.07 | 0.019 | 0.32 | 0.096 | 0.37 | 0.342 |
